Legend:
Experiment in all cases: ELISA
[1] = biological target: IL-17B (Homo sapiens, UniProt Q9UHF5)
[2] = biological target: IL-17C (Homo sapiens, UniProt Q9P0M4)
[3] = biological target: IL-17D (Homo sapiens, UniProt Q8TAD2)

Measured: binding result

Chain of IL-17D (Q8TAD2 16-202): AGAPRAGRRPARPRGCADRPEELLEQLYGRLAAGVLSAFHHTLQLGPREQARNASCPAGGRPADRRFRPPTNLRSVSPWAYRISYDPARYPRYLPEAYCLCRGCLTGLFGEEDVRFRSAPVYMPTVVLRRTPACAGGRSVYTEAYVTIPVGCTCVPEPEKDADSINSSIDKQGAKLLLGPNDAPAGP
Chain of IL-17C (Q9P0M4 19-197): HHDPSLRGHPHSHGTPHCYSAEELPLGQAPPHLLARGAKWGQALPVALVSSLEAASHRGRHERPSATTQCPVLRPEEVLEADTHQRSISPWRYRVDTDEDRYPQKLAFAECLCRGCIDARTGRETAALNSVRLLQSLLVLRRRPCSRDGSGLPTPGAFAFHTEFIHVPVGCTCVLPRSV
Chain of IL-17B (Q9UHF5 21-180): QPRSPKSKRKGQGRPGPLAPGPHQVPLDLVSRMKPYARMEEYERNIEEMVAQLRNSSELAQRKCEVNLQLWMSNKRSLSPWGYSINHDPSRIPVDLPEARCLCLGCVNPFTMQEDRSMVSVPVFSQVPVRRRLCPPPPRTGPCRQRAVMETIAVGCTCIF

B1: Ixekizumab (antibody, V domains shown)
VH: QVQLVQSGAEVKKPGSSVKVSCKASGYSFTDYHIHWVRQAPGQGLEWMGVINPMYGTTDYNQRFKGRVTITADESTSTAYMELSSLRSEDTAVYYCARYDYFTGTGVYWGQGTLVTVSS
VL: DIVMTQTPLSLSVTPGQPASISCRSSRSLVHSRGNTYLHWYLQKPGQSPQLLIYKVSNRFIGVPDRFSGSGSGTDFTLKISRVEAEDVGVYYCSQSTHLPFTFGQGTKLEIK
no binding (tested: 100 ng/well): [1] | [2] | [3]
